Values of other authors in paper PMC7302117.

Molecular target: ELK1 (Homo sapiens) (UniProt P19419)
Chain of UniProt P19419 (P19419 whole entry): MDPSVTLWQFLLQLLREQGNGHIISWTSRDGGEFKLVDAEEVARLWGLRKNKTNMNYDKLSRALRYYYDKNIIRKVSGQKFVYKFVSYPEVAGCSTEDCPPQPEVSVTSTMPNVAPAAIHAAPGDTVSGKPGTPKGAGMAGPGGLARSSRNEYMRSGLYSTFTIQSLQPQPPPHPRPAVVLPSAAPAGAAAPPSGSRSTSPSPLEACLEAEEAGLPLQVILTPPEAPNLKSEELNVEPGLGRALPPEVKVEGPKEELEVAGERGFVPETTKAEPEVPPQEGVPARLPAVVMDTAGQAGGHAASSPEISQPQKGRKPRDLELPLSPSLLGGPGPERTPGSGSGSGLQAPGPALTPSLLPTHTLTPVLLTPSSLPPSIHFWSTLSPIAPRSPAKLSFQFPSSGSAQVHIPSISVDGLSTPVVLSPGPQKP

Substance: Androgen receptor A/B domain (from UniProt P10275)
- Kd: 20 nM
